Source: doi:10.1101/2024.06.05.597462 (bioRxiv, 2024)
Like-named read-outs stand apart in the source and are kept apart here.

Assays:
Assay in all cases: fluorescence correlation spectroscopy
Arc NTD-linker-SNAP = biological target: Arc NTD-linker-SNAP
[1] = biological target: the molecule itself
[2] = biological target: the molecule itself; remark: listed apart in the source

Row | stoichiometry N (Arc NTD-linker-SNAP) | Molecule | stoichiometry N [1] | stoichiometry N [2]
1 | 4 | Arc NTD-linker-SNAP (domain or fragment) | – | –
2 | – | Arc-FL-C-EGFP (natural protein) MELDHMTTGGLHAYPAPRGGPAAKPNVILQIGKCRAEMLEHVRRTHRHLLTEVSKQVERELKGLHRSVGKLENNLDGYVPTGDSQRWKKSIKACLCRCQETIANLERWVKREMHVWREVFYRLERWADRLESMGGKYPVGSEPARHTVSVGVGGPEPYCQEADGYDYTVSPYAITPPPAAGELPEQESVGAQQYQSWVPGEDGQPSPGVDTQIFEDPREFLSHLEEYLRQVGGSEEYWLSQIQNHMNGPAKKWWEFKQGSVKNWVEFKKEFLQYSEGTLSREAIQRELDLPQKQGEPLDQFLWRKRDLYQTLYVDAEEEEIIQYVVGTLQPKFKRFLRHPLPKTLEQLIQRGMEVQDGLEQAAEPSVTPLPTEDETEALTPALTSESVASDRTQPE | 627 | 4.3
